Kd and EC50 data for one molecule are collected here from patent US20210115138A1.

Experiment [1] concerns the target human LAG-3 protein (Example 3) (human) (UniProt P18627). The experiment is described as follows: SPR.
In experiment [2] the target is human LAG-3 on cells (human) (UniProt P18627). Put plainly: FACS on cell surface human LAG-3.
For experiment [3] the target is unchanged. Put plainly: FACS affinity test on cell surface human LAG-3.
Experiment [4] addresses human LAG-3 protein (Example 3) (human) (UniProt P18627). Put plainly: ELISA; blocking of LAG-3 protein binding to LSECtin.
For experiment [5] the target is unchanged. Put plainly: ELISA; blocking of LAG-3 protein binding to Galectin-3.
For experiment [6] the target is unchanged. The experiment is described as follows: FACS; blocking of LAG-3 protein binding to MHC-II on Raji cells.

Chain of human LAG-3 protein (Example 3) (human) (P18627 23-450 limits assumed): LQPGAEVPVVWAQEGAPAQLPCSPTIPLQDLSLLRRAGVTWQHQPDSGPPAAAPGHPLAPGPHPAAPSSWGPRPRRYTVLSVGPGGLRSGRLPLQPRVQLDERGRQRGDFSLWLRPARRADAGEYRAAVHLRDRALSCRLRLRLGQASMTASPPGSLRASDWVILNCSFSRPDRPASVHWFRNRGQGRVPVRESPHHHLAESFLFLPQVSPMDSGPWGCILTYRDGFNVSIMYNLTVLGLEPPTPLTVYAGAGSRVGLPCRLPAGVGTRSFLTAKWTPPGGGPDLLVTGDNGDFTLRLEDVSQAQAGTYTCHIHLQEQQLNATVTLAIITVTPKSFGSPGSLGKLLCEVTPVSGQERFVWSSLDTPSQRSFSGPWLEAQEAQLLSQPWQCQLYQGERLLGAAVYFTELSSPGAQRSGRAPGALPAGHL
Chain of human LAG-3 on cells (human) (P18627 23-525): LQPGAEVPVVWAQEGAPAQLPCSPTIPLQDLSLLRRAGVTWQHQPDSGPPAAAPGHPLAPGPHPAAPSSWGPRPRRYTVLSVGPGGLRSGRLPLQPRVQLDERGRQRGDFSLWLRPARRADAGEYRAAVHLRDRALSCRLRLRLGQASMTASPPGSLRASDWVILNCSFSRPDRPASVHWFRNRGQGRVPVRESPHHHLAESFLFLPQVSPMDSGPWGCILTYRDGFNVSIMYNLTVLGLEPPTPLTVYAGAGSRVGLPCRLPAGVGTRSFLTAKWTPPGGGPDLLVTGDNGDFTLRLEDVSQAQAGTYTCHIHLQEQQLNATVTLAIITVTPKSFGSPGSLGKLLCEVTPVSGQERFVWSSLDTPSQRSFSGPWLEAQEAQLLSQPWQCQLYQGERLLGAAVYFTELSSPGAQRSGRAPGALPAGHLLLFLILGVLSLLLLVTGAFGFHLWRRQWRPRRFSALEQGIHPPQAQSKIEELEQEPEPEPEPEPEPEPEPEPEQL

B1: BMK7 (antibody, INN chains, looked up, V domains shown)
VH: QVQLVESGGGVVQPGRSLRLSCVASGFTFSSYGMHWVRQAPGKGLEWVAIIWYDGSNKYYADSVKGRFTISRDNSKNTQYLQMNSLRAEDTAVYYCASVATSGDFDYYGMDVWGQGTTVTVSS
VL: EIVLTQSPATLSLSPGERTTLSCRASQRISTYLAWYQQKPGQAPRLLIYDASKRATGIPARFSGSGSGTGFTLTISSLEPEDFAVYYCQQRSNWPLTFGGGTKVEIK
B1: the Kd in experiment [1] worked out at 0.497 nM; in experiment [3], 0.58 nM. Further, the EC50 came out at 0.61 nM in experiment [2], 0.59 nM in experiment [4], 0.79 nM in experiment [5] and 1.25 nM in experiment [6].
